In assay [1] the target is T1, recombinant human Factor VIIa (human), P08709.
T1 chain 1: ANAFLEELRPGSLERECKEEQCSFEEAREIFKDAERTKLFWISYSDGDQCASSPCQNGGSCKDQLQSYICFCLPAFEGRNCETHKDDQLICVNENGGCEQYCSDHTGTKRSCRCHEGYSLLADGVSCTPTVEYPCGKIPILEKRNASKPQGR
T1 chain 2: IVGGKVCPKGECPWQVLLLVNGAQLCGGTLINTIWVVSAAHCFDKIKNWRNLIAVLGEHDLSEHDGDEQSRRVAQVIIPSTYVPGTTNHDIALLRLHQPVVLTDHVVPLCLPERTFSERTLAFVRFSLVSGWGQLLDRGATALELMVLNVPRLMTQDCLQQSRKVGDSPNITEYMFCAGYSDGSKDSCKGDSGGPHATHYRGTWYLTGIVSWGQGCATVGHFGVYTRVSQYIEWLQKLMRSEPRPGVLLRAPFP
The experiment in a line: competition ELISA. As to conditions: modification not given.

Assay [2] deals with T2, recombinant human Factor VIIa (human, UniProt P08709 61-212; P08709 213-466).
T2 construct: Immobilized directly on microtiter plates at 2 ug/ml; also called FVIIa
T2 sequence (looked up) 1: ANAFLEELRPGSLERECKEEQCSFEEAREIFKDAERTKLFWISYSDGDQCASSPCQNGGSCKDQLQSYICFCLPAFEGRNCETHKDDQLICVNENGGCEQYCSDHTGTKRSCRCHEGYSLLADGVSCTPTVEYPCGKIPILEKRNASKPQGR
T2 sequence (looked up) 2: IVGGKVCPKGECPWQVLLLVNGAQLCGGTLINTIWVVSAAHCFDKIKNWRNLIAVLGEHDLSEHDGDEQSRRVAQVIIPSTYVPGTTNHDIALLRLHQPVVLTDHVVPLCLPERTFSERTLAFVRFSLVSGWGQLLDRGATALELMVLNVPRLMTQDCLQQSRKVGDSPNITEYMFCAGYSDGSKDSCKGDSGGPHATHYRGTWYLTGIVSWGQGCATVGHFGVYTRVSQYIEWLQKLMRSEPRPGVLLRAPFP
The experiment in a line: FVIIa Binding ELISA, competition with 20 nM TF147b on immobilized FVIIa. On the procedure:
FVIIa Binding ELISA—The ability of peptides to compete with biotinylated versions of TF76 (e.g. TF147b, or other peptides described herein that could be biotinylated as described) for binding to FVIIa was monitored using a FVIIa Binding ELISA or a TF-FVIIa Binding ELISA. Microtiter plates were coated overnight with 2 μg/ml recombinant human FVIIa or 2 μg/ml TF₁₋₂₄₃ (Paborsky, L. R. et al. (1991) J. Biol. Chem. 266: 21911) in 50 mM ammonium bicarbonate pH 9 at 4° C.; all other steps were performed at room temperature. Plates were then blocked with 1% BSA in Assay Buffer (50 mM HEPES, pH 7.2, 5 mM CaCl₂, 150 mM NaCl). […] The microtiter plate was washed 3 times with Assay Buffer plus 0.05% Tween 20 and the biotinylated-peptide bound was detected with a Streptavidin/HRP conjugate (Streptavidin-POD, Roche Molecular Biochemicals). The amount of HRP bound was measured using ABTS/H₂O₂ substrate (Kirkegaard and Perry Laboratories) and monitoring the absorbance at 405 nm. The absorbance at 405 nm was plotted versus the concentration of peptide originally added to the well. Sigmoidal curves were fit to a four parameter equation by nonlinear regression analysis (Marquardt, J. Soc. Indust. Appl. Math. 11:431-441 (1963); the concentration of each peptide required to give a half-maximal signal in the assay was calculated from the curves and is referred to as the IC₅₀ value. […]

The values that follow come from patent US20030119727A1 (Genentech, published 2003).

Positions of bridges follow the written chain, without caps; N, C: chain ends. No end group written: not given here. A value given as a limit tells only on which side of the number the result lay.

B1: TF107 (peptide)
chain: ALCADPRVDRWYCQFVEG
As for B1, the IC50 in assay [1] is 10 nM.

B2: TF108 (peptide)
chain: ALCDAPRVDRWYCQFVEG
Consider B2, for which the IC50 in assay [1] stood at 104 nM.

B3: TF179 (peptide)
chain: ALCDDPRVDRWYCAFVEG
On to B3, for which the IC50 in assay [1] was determined as 32 nM.

B4: TF129 (peptide)
chain: ALCDDPRADRWYCQFVEG
For the molecule B4, in assay [1], the IC50 is 716 nM.

B5: TF318 (peptide)
chain: ATCDDPRVDRWYCQFVEG
B5: the IC50 in assay [1] was 75000 nM.

B6: TF144 (peptide)
chain: ALCDDPRVDRWFCQFVEG
For B6, the IC50 in assay [1] came out at 485 nM.

B7: TF180 (peptide)
chain: ALCDDPRVDRWYC
For B7, in assay [1], the half-inhibitory concentration (IC50) was found to be 100000 nM.

B8: TF191 (peptide)
chain: ALCDDPRVDRWYCQQVEG
Take B8: in assay [1], the IC50 was determined as 20300 nM.

B9: TF146 (peptide)
chain: ALCDDPRVDRWYCQYVEG
As to B9, in assay [1], the IC50 came out at 698 nM.

B10: TF61 (peptide)
chain: LCDDPRIDRWYCMF
Regarding B10, the IC50 in assay [1] was 250000 nM.

B11: TF320 (peptide)
chain: AKCDDPRVDRWYCQFVEG
Take B11: the IC50 in assay [1] came to 42000 nM.

B12: TF152 (peptide)
chain: ALCDDPRVDRHYCQFVEG
For B12, the IC50 in assay [1] was greater than 100000 nM.

B13: TF113 (peptide)
chain: ALCDDPRVDPWYCQFVEG
With B13, the concentration for half-maximal inhibition (IC50) in assay [1] turned out to be 10500 nM.

B14: TF114 (peptide)
chain: ALCDDPRVDRAYCQFVEG
B14: in assay [1], the IC50 is greater than 50000 nM.

B15: TF130 (peptide)
chain: ALCDDPRVDKWYCQFVEG
B15: the half-maximal inhibitory concentration (IC50) in assay [1] turned out to be 93 nM.

B16: TF77 (peptide)
chain: LCDDPRVDRWYCQFVEG
For the molecule B16, the IC50 in assay [1] turned out to be 248 nM.

B17: TF109 (peptide)
chain: ALCDDPAVDRWYCQFVEG
For the molecule B17, in assay [1], the 50% inhibitory concentration (IC50) was 110 nM.

B18: TF112 (peptide)
chain: ALCDDPRVDAWYCQFVEG
B18: the IC50 in assay [1] stood at 396 nM.

B19: TF119 (peptide)
chain: ALADDPRVDRWYAQFVEG
B19: the 50% inhibitory concentration (IC50) in assay [1] was greater than 100000 nM.

B20: TF74 (peptide)
chain: VGALCDDPRVDRWYCQFVEG
As to B20, in assay [1], the half-maximal inhibitory concentration (IC50) was 5 nM.

B21: TF115 (peptide)
chain: ALCDDPRVDRWYCQAVEG
B21: in assay [1], the IC50 turned out to be 20000 nM.

B22: TF319 (peptide)
chain: AMCDDPRVDRWYCQFVEG
B22: the IC50 in assay [1] was 24000 nM.

B23: TF121 (peptide)
chain: ALCDDPRIDRWYCQFVEG
As for B23, the half-maximal inhibitory concentration (IC50) in assay [1] was 3 nM.

B24: TF156 (peptide)
chain: CDDPRVDRWYCQFVEG
As to B24, the 50% inhibitory concentration (IC50) in assay [1] was 90300 nM.

B25: TF75 (peptide)
chain: VGALCDDPRVDRWYCQFVE
In the case of B25, in assay [1], the half-maximal inhibitory concentration (IC50) came to 6 nM.

B26: TF106 (peptide)
chain: ALCDNPRVDRWYCQFVEG
B26: in assay [1], the half-inhibitory concentration (IC50) stood at 2 nM.

B27: TF127 (peptide)
chain: ALCRDPRVDRWYCQFVEG
Turning to B27, in assay [1], the IC50 amounted to 28 nM.

B28: TF110 (peptide)
chain: ALCDDPRVARWYCQFVEG
For B28, in assay [1], the IC50 was 330 nM.

B29: TF120 (peptide)
chain: ALCDEPRVDRWYCQFVEG
In the case of B29, the IC50 in assay [1] is 109 nM.

B30: TF97 (peptide)
chain: ALCDDPRVNRWYCQFVEG
B30: the IC50 in assay [1] stood at 1200 nM.

B31: TF162 (peptide)
chain: ALCDDPRVSRWYCQFVEG
With B31, the concentration for half-maximal inhibition (IC50) in assay [1] stood at 359 nM.

B32: TF317 (peptide)
chain: AVCDDPRVDRWYCQFVEG
B32: in assay [1], the IC50 was 988 nM.

B33: TF96 (peptide)
chain: ALCDDPEVDRWYCQFVEG
Turning to B33, the IC50 in assay [1] worked out at 257 nM.

B34: TF89 (peptide)
chain: ALCDDPRVDRWYCQFV
Consider B34, for which the IC50 in assay [1] was found to be 298 nM.

B35: TF131 (peptide)
chain: ALCDDPRVDRFYCQFVEG
As for B35, the IC50 in assay [1] was 4960 nM.

B36: TF90 (peptide)
chain: ALCDDPRVDRWYCQF
Consider B36, for which, in assay [1], the half-maximal inhibitory concentration (IC50) worked out at 168 nM.

B37: TF145 (peptide)
chain: ALCDDPRVDRWACQFVEG
Turning to B37, the IC50 in assay [1] was greater than 50000 nM.

B38: TF128 (peptide)
chain: ALCDDPRLDRWYCQFVEG
With B38, the IC50 in assay [1] was found to be 141 nM.

B39: TF155 (peptide)
chain: AACDDPRVDRWYCQFVEG
Regarding B39, the half-inhibitory concentration (IC50) in assay [1] turned out to be 9780 nM.

B40: TF111 (peptide)
chain: ALCDDPRVERWYCQFVEG
B40: the IC50 in assay [1] was 147 nM.

B41: TF95 (peptide)
chain: ALCDRPRVDRWYCQFVEG
With B41, the 50% inhibitory concentration (IC50) in assay [1] is 123 nM.

B42: TF161 (peptide)
chain: ALCDDPRVQRWYCQFVEG
For B42, in assay [1], the 50% inhibitory concentration (IC50) is 8620 nM.

B43: TF63 (peptide)
chain: LCDDPRIDRWYCQF
On to B43, for which the IC50 in assay [1] was determined as 100000 nM.

B44: TF132 (peptide)
chain: ALCDDPRVDRWYCYFVEG
With B44, the IC50 in assay [1] came to 85 nM.

B45: TF189 (peptide)
chain: ALCDDPRVDRWYCQLVEG
Take B45: the IC50 in assay [1] amounted to 438 nM.

B46: TF58 (peptide)
chain: EGTLCDDPRIDRWYCMFSGV
Consider B46, for which the IC50 in assay [1] came to 2300 nM.

B47: TF98 (peptide)
chain: ALCDDPRVDQWYCQFVEG
Take B47: the half-maximal inhibitory concentration (IC50) in assay [1] was determined as 2560 nM.

B48: peptide TF151 (peptide)
peptide: ALCDNPRIDRWYCQFVEG
modifications: disulfide 3-13 (inferred)
notes: Chemically synthesized, with the disulfide oxidized
Regarding B48, the IC50 in assay [2] came out at 2 nM.

B49: TF178 (peptide)
chain: ALCDDARVDRWYCQFVEG
In the case of B49, the IC50 in assay [1] is 20 nM.
